Biological target: T1, CC1H, major antigenic region of PLA2R (human, UniProt Q13018 21-367)
T1 construct: Secreted from CHO-S cells, purified on Ni column; also called CCIh
Test: indirect ELISA, CC1h coated at 2 ug/mL, anti-human IgG Fc HRP
Experimental: 30 μL of CC1h (2 μg/mL, diluted with 1*PBS) was added to the reaction wells of the ELISA plate, and the plate was sealed and incubated at 4° C. overnight. The plate was washed with PBST for 3 times, and the liquid in the wells was discarded. 5% PBSM was added to block the ELISA plate at room temperature for 2 hours. The plate was washed with PBST for 3 times by adding 30 μL of Abs (diluted with 1*PBS) to each well of the ELISA plate, and the plate was incubated at room temperature for 60 min. The plate was washed with PBST for 3 times, 30 μL of anti-human IgG Fc HRP (diluted with 1% PBSM at a ratio of 1:8000) was added to each well, and incubated at room temperature for 60 min. TMB was added and the reaction was stopped with 2M blocking solution and the OD value was detected at 450 nm. Recombinant Ipilimumab (Sanyou Biopharmaceuticals Co., Ltd.) was used as a negative control. The test results were illustrated in Table 2 as well as FIG. 4 and FIG. 5.

EC50 [ng/mL] | Binder
6.67 | B16 (antibody, human IgG4, kappa, V domains shown, also called P59382) VH: QVQLVQSGGGLVQPGGSLRLSCAASGFTFSSYAMSWVRQAPGKGLEWVSAISGSGGSTYYADSVKGRFTISRDNPKNTLFLQMTSLRSEDTAMYYCARSYGNYFTYWGQGTLVTVSS VL: EIVLTQSPATLSLSPGERATLSCRASQSVSSYLAWYQQKPGQAPRLLIYDASNRATGIPARFSGSGSGTDFTLTISSLEPEDFAVYYCQQRSNWPPELTFGGGTKVEIKR
8.49 | A21 (antibody, human IgG4, kappa, V domains shown, also called P59369) VH: EVHLVESGPELVRPGASVTLSCKASGYTFTDYEMHWVKQTPVHGLEWIGAIDPETGGTAYNQKFKGKATLTADKSSSTAYMELRSLTSEDSAVYYCTTTYGNYWYFDVWGAGTLVTVSS VL: DIQLTQSPSSVSASVGDRVTITCRASQNIENWLAWYQQKPGKAPKLLIYATSRLENDVPSRFSGSRSGTEFILTISSLQPEDFATYYCHQANGFPWTFGPGTKVDIKR
7.71 | B83 (antibody, V domains shown, also called P59389) VH: EVQLLESGGGLVQPGGSLRLSCAASGFTFSSYAMSWVRQAPGKGLEWVSAISGSGGRTYYADSVKGRFTISRDNSKNTLYLQMNSLRAEDTAVYYCARVLQYSGTDDLDVWGRGTLVTVSS VL: not shown
5.36 | B20 (antibody, human IgG4, kappa, V domains shown, also called P59383) VH: QVQLLESGPGLVKPSETLSLTCTVSGDSISNYFWSWIRQSPGKGLEWIGYIHYSGTVSYNPSLRSRVTISIDTSKNQFSLKLSSVTAADTAVYYCARRGRIAAAGTGYYYYGMDVWGQGTTVTVSS VL: EIVMTQSPATLSLSPGERATLSCRASQSVSNYLAWYQQKPGQAPRLLIYGASSRATGIPDRFSGSGSGTDFTLTISRLEPEDFAVYYCQQYGSSLWTFGQGTKVEIKR
4.03 | A53 (antibody, human IgG4, kappa, V domains shown, also called P59374) VH: EVQLLESGPGLVKPSQTLSLTCTVSGGSISSGGYYWSWIRQHPGKGLEWIGYIYYSGSTYYNPSLKSRVTISVDTSKNQFSLKLSSVTAADTAVYYCARDSRGRSYGMDVWGQGTMVTVSS VL: DIQMTQSPSSLSASVGDRVTITCRASQSINNYLNWYQEKPGKAPKLLIYAASSLQSGVPSRFSGSGSGTDFTLTISSLQPEDFATYYCQQSYSYPFTFGPGTKVDIKR
7.67 | B53 (antibody, human IgG4, kappa, V domains shown, also called P59387) VH: EVQLVETGGGVVQPGRSLRLSCAASGFTFSSYAMHWVRQAPGKGLEWVAVISYDGSNKYYADSVKGRFTISRDNSKNTLYLQMNSLRAEDTAVYYCARNRYGATDYWGQGTLVTVSS VL: NIQLTQSPSSLSASVGDRVTITCRASQGINSWLAWYQQKPGKAPKLLIYAASTLQSGVPSRFSGSGSGTDFTLTINSLQPEDFATYYCQQLNSFPFTFGPGTKVHIKR
7.17 | B117 (antibody, human IgG4, kappa, V domains shown, also called P59394) VH: EVQLLESGGGLVQPGGSLRLSCAASGFTFSSYSMNWVRQAPGKGLEWVSYISSSSSTIYYADSVKGRFTISRDNAKNSLYLQMNSLRDEDTAVYYCARDRTLGYWGQGTLVTVSS VL: NIQLTQSPSSVSASVGDRVTISCRASQGIGRWLAWYQQKPGKAPKLLIYAASNLQSGVPSRFSGSGSGTDFTLTISSLQPEDFATYYCQQANSFPRTFGPGTKVDIKR
4.81 | A8 (antibody, human IgG4, kappa, V domains shown, also called P59367) VH: QVQLVQSGAEVKKPGSSVKVSCKASGGTFSSYAISWVRQAPGQGLEWMGGIIPIFGTANYAQKFQGRVTMTRDTSTSTVYMELSSLRSEDTAVYYCARDSDFWSGYSSMDVWGQGTTVTVSS VL: DIVMTQSPLSLPVTLGQPASISCRSSQSLVHSDGNTYLNWFQQRPGQSPRRLIYKVSNRDSGVPDRFSGSGSGTDFTLKISRVEAEDVGVYYCMQGTQWPDTFGQGTKLEIKR
8.88 | B201 (antibody, human IgG4, kappa, V domains shown, also called P59398) VH: EVQLVESGGGLVQPGGSLRLSCAASGFTFSSYAMHWVRQAPGKGLEWVSAISGSGDSTYYADSVKGRFSISRDNSKNTLYLQMNSLRAEDTAVYYCAKGSRRSGFNLFDYWGQGTLVTVSS VL: not shown
8.09 | B123 (antibody, human IgG4, kappa, V domains shown, also called P59395) VH: QVQLQQWGAGLLKPSQTLSLTCTVSGGSISSGGYYWSWIRQHPGKGLEWIGYIYYSGSTYYNPSLKSRVTISVDTSKNQFSLKLSSVTAADTAVYYCARWDRVREGGRFSNAFDIWGQGTMVTVSS VL: NIQLTQSPSSLSASVGDRVTITCRASQGISTYLAWYQQKPGLAPKLLIYGASTLQSGVPSKFSGFGSGRDFTLTISSLQPEDIATYYCQQLNTYPPTFGQGTKLEIKR
5.02 | B67 (antibody, human IgG4, kappa, V domains shown, also called P59388) VH: QITLKESGPGLVKPSGTLSLTCAVSGGSISSSNWWSWVRQPPGKGLEWIGEIYHSGSTNYNPSLKSRVTISVDKSKNQFSLKLSSVTAADTAVYYCARDDGWRYGSVYYYYMDVWGKGTTVTVSS VL: DIQLTQSPSSLSASVGDRVTITCRASQSIDDHLNWYQQKPGKVPKLLISSASTLQSGAPSRFSGSGYGTDFTLTISSLQVEDFATYYCQQSYSPPQTFGQGTKVEIKR
3.85 | B29 (antibody, human IgG4, kappa, V domains shown, also called P59385) VH: QVQLVQSGAEVKKPGSSVKVSCKASGDTFSSFAISWVRQAPGQGLEWMGTIIPLFTTPNYAQKFQGRVTITADESTRTAYMELSSLRSEDTAVYYCARGPERIAAAGYYYYYGMDVWGQGTTVTVSS VL: EIVMTQSPGTLSLSPGQRATLSCRASQSVSSSSLAWYQQKPGQAPRLLIHGASSRATGIPDRFSGSGSGTDFTLTISRLEPEDFAVYYCQQYGTSWTFGQGTKVEIKR
16 | A26 (antibody, human IgG4, kappa, V domains shown, also called P59372) VH: not shown VL: DIVMTQSPLSLPVTPGEPASISCRSSQSLLHSNGRNYLDWYLQKPGQSPQLLIYLGSNRASGVSDRFSASGSGTDFTLQISRVEAEDVGIYYCMQALQTPWTFGQGTKVEVKR
13.2 | A382 (antibody, human IgG4, kappa, V domains shown, also called P59381) VH: QVQLVQSGAEVKKPGASVKVSCKASGYTFTSYAMHWVRQAPGQRLEWMGWINAGNGNTKYSQKFQGRVTITRDTSASTAYMELSSLRSEDTAVYYCATSKSVWNFDYWGQGTLVTVSS VL: EIVLTQSPATLSLSPGERATLSCRASQGISSYLAWYQQKPGQAPRLLIYDASNRATGIPARFSGSGSGTDFTLTISNLEPEDFAVYYCQQRKNWPLTFGGGSKVEIKR
6.52 | B114 (antibody, human IgG4, kappa, V domains shown, also called P59393) VH: EVQLLESGGGLVQPGGSLKLSCAASGFTFSGYAMHWVRQAPGKGLEWVAVISYDGSNKYYADSVKGRFTISRDNSKNTLYLQMNSLRAEDTAVYYCARGRGRGVFDYWGQGTLVTVSS VL: EIVLTQSPGTLSLSPGERATLSCRASQSVSKYLAWYQQKPGQAPRLLIYDVSNRATGIPARFSGSGSGTDFTLTISSLEPEDFAVYYCQQRRSWPLTFGGGTKVEIRR
4.79 | A44 (antibody, human IgG4, kappa, V domains shown, also called P59373) VH: QVQLQESGPGLVKPSQTLSLTCTVSGGSISSGGYYWSWIRQHPGKGLEWIGYIYYSGSTYYNPSLKSRVTISVDTSKNQFSLKLSSVTAADTAVYYCARWGRGGSSWRFDIWGQGTMVTVSS VL: AIQMTQSPSSLSASVGDRVTITCRASQALTYTLAWYQQKPGKAPRLLIHDASSLESGVPSRFSGSGSGTDFTLTITSLQPEDFATYYCQQFRSYPLTFGGGTKVEIKR
5.74 | B307 (antibody, human IgG4, kappa, V domains shown, also called P59399) VH: QLQLQESGPGLVKPSQTLSLTCTVSGGSISSGGYYWSWIRQHPGKGLEWIGYIYYSGSTYYNPSLKSRVTISVDTSKNQFSLKLSSVTAADTAVYYCARMGRIAASNYYGMDVWGQGTTVTVSS VL: DIQLTQSPSFLSASVGDRVTITCRASQGISSQLAWYQQEPGKAPKLLIYAASTLQSGVPSRFSGSGSGTEFTLTISSLQPEDFATYYCQQVNAYPLTFGPGTKVDIKR
27.6 | A23 (antibody, human IgG4, kappa, V domains shown, also called P59371) VH: QVQLVQSGAEVKKPGSSVKVSCKASGGTFSSYAISWVRQAPGQGLEWMGGIIPIFGTANYAQKFQGRVTITADESTSTAYMELSSLRSEDTAVYYCARGGGGRGMTSDWGQGTLVTVSS VL: NIQLTQSPSSLSASVGDRVTITCRASQDISNYLAWFQQKPGKAPKSLIYAASSLQSGVPSRFSGSWSGTDFTLTISSLQPEDIATYYCQQYKRYPFIFGQGTKLEIKR
6.41 | A67 (antibody, human IgG4, kappa, V domains shown, also called P59376) VH: QVQLVQSGGGVVQPGRSLRLPCAASGFTFSNYAMHWVRQAPGKGLEWVAVISYDGSKKYYADSVKGRFTISRDNSKNTLYLQVNSLRAEDTAVYYCATGYSSPWYGMDVWGQGTTVTVSS VL: NIQMTQSPSSLSASVGDRITITCRASQSVNSYVNWYQQTPGQAPKLLIYAASSVHNGVPVRFSGSRSGTEFILTISSLQPEDFVTYFCQQSFTSPWTFGQGTKLEMKR
7.03 | B24 (antibody, human IgG4, kappa, V domains shown, also called P59384) VH: EVQLVETGGGLVKPGGSLRLSCAASGFTFSSYSMNWVRQAPGKGLEWVSSISSSSSYIYYADSVKGRFTISRDNAKNSLYLQMNSLRAEDTAVYYCARGRRRDFDYWGQGTLVTVSS VL: DIQMTQSPSSLPASVGDRVTITCRASQGIGTFLAWYQQHLGKAPKLLISASSTVQRGVPSRFSGSGSGTEFTLTINSLQPEDFATYYCQQLNNYPRTFGQGTKVEIKR
14.1 | A378 (antibody, human IgG4, kappa, V domains shown, also called P59380) VH: not shown VL: NIQMTQSPSSLTASVGDRITITCRASQGIRNSLAWYQQKPGTAPKLLVSAASKLQTGVPSRFSGSGSGTDYTLTISSLQTEDFATYYCQQYYGTPPTFGQGTKLEIKR
6.38 | B109 (antibody, human IgG4, kappa, V domains shown, also called P59392) VH: EVQLLESGGGLVKPGGSLRLSCAASGFTFSSYSMNWVRQAPGKGLEWVSSISSSSSYIYYADSVKGRFTISRDNAKNSLYLQMNSLRDGDTAIYYCVRRLWEAPGIGPFDVWGHGTMVTVSS VL: not shown

From patent publication US20250340652A1 (CHENGDU DI AO PHARMACEUTICAL GROUP, published 2025)
